Data reported in doi:10.1101/2024.11.13.623448.

Columns and labels:
[1] = biological target: nucleosome core particle: Cse4, H2A, H2B, H4 histone octamer wrapped with Widom 601 DNA (S. cerevisiae | K. lactis) (UniProt P36012); test: optical trap bead-microtubule binding assay; His6-NCPs (40 nM) held on polystyrene beads by anti-His6 antibody; 10 nM OA or 20 nM Mif2, 10 nM 2D-MIND, 10 nM Ndc80c, 5 nM Dam1c free in solution; bead brought to the dynamic plus end of a surface-anchored microtubule and released from the trap; 1x BRB80, 1 mM GTP, 16 uM tubulin, room temperature
[2] = biological target: nucleosome core particle: Cse4, H2A, H2B, H4 histone octamer wrapped with chimeric centromeric DNA (CCEN) (S. cerevisiae | K. lactis) (UniProt P36012); test: as above

Mif2-linker-(27-392)MBP (from UniProt P35201 1-549) (natural protein)
percent of beads that bound microtubules [1]: > 78%
percent of beads that bound microtubules [2]: > 78%
